# Reference: the supplement of paper PMC9170038
# Test system: K4 kissing-loop RNA reporter
# Experiment: apparent KD of K4 kissing-loop reporter; higher = weaker reporter binding
# Settings: Eterna round: R107; input ligand: FMN 200 uM
# Experimental: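 RNA-MaP round R107: designed RNA switches with theophylline, tryptophan, arginine or FMN aptamers are transcribed on-chip within common flanks. They are titrated with a labelled K4 kissing-loop RNA reporter in RNA-MaP buffer (100 mM Tris pH 7.5, 80 mM KCl, 4 mM MgCl2), without ligand or with the indicated ligand. Median apparent KD per design.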
# 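Note: bound reporter read as fluorescence of individual clusters on recovered sequencing chips by microscopy, with normalized cluster intensities fitted with a binding model.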
row,Sequence,apparent KD of K4 kissing-loop reporter
1,AGCGGCCAGUCGGCCGCCACUCCGGGCAGUGAUGUUGCGAAGUGUCUACUAGAGUGAUGUUCUAAGAGGACCGGGACUGACGUAU [Exclusion Tryptophan B Gf 11],434 nM
2,AUUUAAUUAACUGAUACCAGACUUUAUGUAUUUAUUAAAACUAGUGAUGUUAGUUUAUCUGUCCCUUGGCAGCAGUUUCUACUUA [JR_Nu_ExcTheophyB_Sub021],93.5 nM
3,UCCACGCUUCGAGGAUAUCGGAUUAGAGUGAUGUUCUAAAGACGCCCAGUGAUGUUGGAUGCGAUACGAGAAGGCGGUGGCGUGU [Same State FMN B GF6],236 nM
4,UUUUUGGAGAAUUAUAGUGAUGUUAUGAAGGAGGAUAUCUGGAGAUGGAGAAGGCCUAGUGGCUCAGCCCUCGCGGGUGGGUGGG [ExFMNA.aD],667 nM
5,UUUUAUAACCGAAGGAGCGCGUGGGCGCAGUGAUGUUGCGCCCGACAUCACUUCAACUUAACGCAGGUAGGUCGCGGUUUUAAUG [Arginine B (Excl) V3],148 nM
6,AGAUUCGACACGGCCGCCACUCGUGGUGGAUUACCUAGUGUCGAAGUUGAGUGAUGUUCAAGUACGAGGACCGGGUGUUGAGUCU [KL-XTryp-B8 #analogue],420 nM
7,UCGAUCGCUAGUGAUGUUGGUGUGCUACAUCGAGGACCGGUACGGCCGCCACUCGAGCCCGAGUAGAAGGGUGGGCUGCUAUGAA [theeternabot_sameState_KL_Trp_A_18],1510 nM
8,AAAUAAAGCAGUCACCCAGUGAUGUUGGAAGGAGCGUGCGAAAGCACAGGUAGGUCGCCGAUAGGACAAAGUCCAAGUGGCUGCA [#SwitchBubble 30 #K4Early],625 nM
9,UUUGUAGUGGGAGGAUAUCCUAAUAUGGGUGAUGUUAGCGAUGUUGAAGGUGUAGUGAUGUUAUGCGGAGAAGGCCCACUGUAGA [BDazzled - #20 - Exc. FMN B],543 nM
10,AAAGGCAAAGCCCGAGUGAUGUUCGACGAUACCAGCCUCGAUAGAGGCCCUUGGCAGCGUAAAUGAUCAUGAAGCCAAGGAAUAA [whbob_Ex_Theo_A_th67],352 nM
11,AAAGGAUCAGAGAGUGAUGUUCUCUAAUAACGAGGACCGGUACGGCCGCCACUCGAAUAGAUCCAAGUCCUACGAAAAGUAGGAC [Omei inspired 8],274 nM
12,CCAUUCUGUUACGAUACCAGUCUAAUAUAUUUGAUCAAUACCCUCGCCGAGUGAUGUUCGGACCCUUGGCAGCGUCUGGGACAGG [bbybmullin],453 nM
13,GCCUUUUUUCGAGCUACAGCUCGAUUUGGUCGAGGACCGGUACGGCCGCCACUCGAAUGAUAGUGAUGUUAUCAUUAUGGCAUAA [JR_ExcTryptoA_Sub023],196 nM
14,AAGUGUCAUUAGACACACCGAUGUAUAAACUAGGAUAUGCUGAUAAGCAGAAGGAGUGAUGUUCCUUUCAUCAUCGGAAUUAAAU [#06 K4 FMN A Exclusion],301 nM
15,AACGCUGGUGAAUAACACUAGCGAAAUUCGCGAGGACCGGUACGGCCGCCACUCGCUAACUGCGAGUGAUGUUCGAUAAUAAAAU [Mat - Mod of OpenEnded 3 - D7],174 nM
16,AAGGGCGAGGUAACGUGGAUAUCUCGUCGCAAGGAUAUCUGGAAACAGAGAAGGUGCGACAUCACCGGCAGUGAUGUUGCUGGGC,298 nM
17,AAUGUACAGGGAAGGAGCGUAGUCCAGUGAUGUUGGAAUUAAAUACCAGUGAUGUUGGUUAUACAGGUAGGUCGCCCUAAAGUGC [KL-XARG-B20],86.3 nM
18,AUUUUUUUAUCAGGAUAUUAGUGAUGGUUGUUUUUGUUAGUGAUGUUGAUAUUUGUUUUAUGUAUUUAAGAAGGGAUUGAGAUGU [zbbzmullin],68.1 nM
19,UACGCCACAGACGUGGAGUACCUUGGGUCGAAGGAUAUCAGCAUUGUGAGAAGGUCGCCGAUUCUAAGUGAUGUUUAGAUCAGGG [theeternabot_sameState_KL_FMN_A_2],132 nM
20,CGAGUGAUGUUCGAAGAGUUGUUAAGCGAUACCAGCUAGGAAACUGGCCCUUGGCAGCGUAAUAAAUAAAUAAAUAAAUGAUCAC [whbob_Ex_Theo_A_th62],351 nM
21,UCGAUAGAGAGUGAUGUUCUCGUAUCAGAUACCAGUCACGCGAGUGACCCUUGGCAGCUGAUGUACAGCUGAGAGUAGUAUUCGA [Theo A Ex t8],90.1 nM
22,UUUCCAGAUAAGUGGGAACACUCCAUAACAGAGGAUAUCAGAGCGCUGAGAAGGCUGUUUAUCAGUGAUGUUGAUAGUGUGGAGU [FMN A SS t2a],171 nM

row,Sequence,apparent KD of K4 kissing-loop reporter
1,GGUGACAACCAGAGGUGAUGUAUAGAAUCGCGAGGACCGGUACGGCCGCCACUCGUGAAGAGAAAGGAGUGAUGUUCCGUAAUGG [Kazoo C6],271 nM
2,UGUACCGACUCAGGAUAUGUCGUCGAAAGACGAAAUGGAGUGAUGUUCCUUAAACUGCGAAAGCAGACAGAAGGGAGUUGGUACU [FmnBS 29 C9+G77],137 nM
3,GCUAUGGUAGGAAGGAGCGCUUAAUUACUAAUAAGAGUGAUGUUCGAUAGUAGGUAUUUGUAGCAGGUAGGUCGCCUACUAUAGC [KL-Arg B24],264 nM
4,GUAUAUCGAGUGAUGUUCGAAUGCUCCGAAGGAGCGCGGAUAAUCGCAGGUAGGUCGCGGAGCAGUUGCUGAGGAAGCUCAGUAU [Arg A SS t11],162 nM
5,AAGUCAUACAGAAGGAGCGUGUUUUAUAAUUUAUUUUCAUGAUCGAGUGAUGUUCGAUAUACACAGGUAGGUCGCUGUAUAAUAA [JR_SSArginiB_Sub007],102 nM
6,GAUCAUAGCACGGCCGCCACUGAUAUGCCGUGCUAUACGAGUGAUGUUCGUAAUUAUACGGGUAUCAGGACCGGGUGCAACGGUA [Tryp B SS t2],149 nM
7,AAGCAGUCACUCGAACCCAUCGAAGAUGGGCGAGGACCGGUACGGCCGCCACUCGGAGUGAUGUUCCGCAGACUGCAAAAUAAAA,679 nM
8,UGAUAGGACAGAAGGAGCGGUAGUGAUGUUGCCAAAAGUAUAAGGUGUCAAAAGACACCCUACCAGGUAGGUCGCUGUCCUAUCU,319 nM
9,AGCAAUAUCACGGCCGCCACUGAAUAUUGUUUUUAUAUUUAUAAAUCUUGCCAGUGAUGUUGGUUCAGGACCGGGUGAGUUAAUA [JR_SSTryptoB_Sub004],573 nM
10,CAAGCUCUCCAAGGAUAUGAUAUCGACCCGUCUUAGUGAUGUUAAGGCUGUAGAAAUUCACAUUGAUCAGAAGGUGGUACCCUCC [theeternabot_sameState_KL_FMN_B_8],317 nM
11,AAGUCAUAUAGAAGGAGCGUGUUUUUUAAUUUAUUUUCAUGAUCGAGUGAUGUUCGAUAUACACAGGUAGGUCGCUGUAUAAUAA [hbob_SS_Arginine_B_2t141],126 nM
12,UGUCAUUGGUCGGCCGCCACUUCGUAUGAAGUGAUGUUUUGUAGAUUGUGUUGAAAGGUGUGGUGAAGGACCGGGACCGAUGACU [FiskerMod 23 - Jieux - Same State - Tryptophan B],898 nM
13,GUAUCGCUAGGAGGAUAUUUCAUAUAAUAUAUAAAUGGAUAUACGGAGUGAUGUUCCGAUUUACGGAAAGAAGGCCUAGUGAUAC [FMN B 18],134 nM
14,AUUUUGUUGUCAGGAUAUUAGUAUGGUUUUGGUUUGUUAGUGAUGUUGAUGUUUUGUUUAUGUAUUUAAGAAGGGAUUUAGCGGU [aqaawgumullin],474 nM
15,ACGUCACGUAUACUGGUGGUUUCGAUCGAUACCAGUAGCGAGAGUUACCCUUGGCAGCGACAUGAGUGAUGUUUAUGUAUGAUGA [#13 K4 Theophylline A Exclusion],639 nM
16,AACUGGGUUCGUGAUACCAGCUCACACAUGAGUGAUGUUGAUGUAGUGGGCAAAAUGUGGAGCCCUUGGCAGCACUGUGACCACG [XTheo-B3],422 nM
17,CUGACGUGCGGUAGGUUCAAGUGCUGGGAAGGAGCGCAGAUGACUGCAGGUAGGUCGCCCAGUGAUGUUGGGCUUUCCACCUACG [Quinbe],186 nM
18,AAUGUACAAGUGAUGUUUGUACUUUCCGAAGGAGCGUCAAAUAAGACAGGUAGGUCGCGGAUACUCUAAAUAAUCAGGUCAUUAA [JR_ExcArginiA_Sub019],89.4 nM
19,AAAUAAAAGGCGGCCGCCACUGAACGCCUCCGCGUGGGUAUAUAGUGAUGUUAUAUGGCCGCCUUCAGGACCGGGCCAAAUAAAA [AstrosSSTryB#1],458 nM
20,GGAGAGGUCUUGUUUGGAUGUGUUUAAUGGCGAGGACCGGUACGGCCGCCACUCGGGUGAUGUUAGUGAUGUUGAUGUAGUGAUG [wzwmullin],103 nM
21,GGAUAGGAUAGAGGAUAUGGCUUACGCAGAAAUAACUUGUUGUGUUUAUCCAUAGGGAGUGAUGUUCCAGAAGGCUGUCCUAUCG [MatMod 18 - Jieux - Exclusion - FMN B],732 nM
22,UUAUCUAUAUUCGAUACCAGUACCCUUUGUGUUAAUCCUUUUAUCAGUGAUGUUGAUGUGUACCCUUGGCAGCGGGUAUGGGUUU [KL-XTheo-B15],420 nM

# Same assay, conditions: Eterna round: R107; input ligand: arginine 13.2 mM
row,Sequence,apparent KD of K4 kissing-loop reporter
1,AGCGGCCAGUCGGCCGCCACUCCGGGCAGUGAUGUUGCGAAGUGUCUACUAGAGUGAUGUUCUAAGAGGACCGGGACUGACGUAU [Exclusion Tryptophan B Gf 11],394 nM
2,AUUUAAUUAACUGAUACCAGACUUUAUGUAUUUAUUAAAACUAGUGAUGUUAGUUUAUCUGUCCCUUGGCAGCAGUUUCUACUUA [JR_Nu_ExcTheophyB_Sub021],113 nM
3,UCCACGCUUCGAGGAUAUCGGAUUAGAGUGAUGUUCUAAAGACGCCCAGUGAUGUUGGAUGCGAUACGAGAAGGCGGUGGCGUGU [Same State FMN B GF6],195 nM
4,UUUUUGGAGAAUUAUAGUGAUGUUAUGAAGGAGGAUAUCUGGAGAUGGAGAAGGCCUAGUGGCUCAGCCCUCGCGGGUGGGUGGG [ExFMNA.aD],518 nM
5,UUUUAUAACCGAAGGAGCGCGUGGGCGCAGUGAUGUUGCGCCCGACAUCACUUCAACUUAACGCAGGUAGGUCGCGGUUUUAAUG [Arginine B (Excl) V3],147 nM
6,AGAUUCGACACGGCCGCCACUCGUGGUGGAUUACCUAGUGUCGAAGUUGAGUGAUGUUCAAGUACGAGGACCGGGUGUUGAGUCU [KL-XTryp-B8 #analogue],310 nM
7,UCGAUCGCUAGUGAUGUUGGUGUGCUACAUCGAGGACCGGUACGGCCGCCACUCGAGCCCGAGUAGAAGGGUGGGCUGCUAUGAA [theeternabot_sameState_KL_Trp_A_18],1030 nM
8,AAAUAAAGCAGUCACCCAGUGAUGUUGGAAGGAGCGUGCGAAAGCACAGGUAGGUCGCCGAUAGGACAAAGUCCAAGUGGCUGCA [#SwitchBubble 30 #K4Early],437 nM
9,UUUGUAGUGGGAGGAUAUCCUAAUAUGGGUGAUGUUAGCGAUGUUGAAGGUGUAGUGAUGUUAUGCGGAGAAGGCCCACUGUAGA [BDazzled - #20 - Exc. FMN B],221 nM
10,AAAGGCAAAGCCCGAGUGAUGUUCGACGAUACCAGCCUCGAUAGAGGCCCUUGGCAGCGUAAAUGAUCAUGAAGCCAAGGAAUAA [whbob_Ex_Theo_A_th67],302 nM
11,AAAGGAUCAGAGAGUGAUGUUCUCUAAUAACGAGGACCGGUACGGCCGCCACUCGAAUAGAUCCAAGUCCUACGAAAAGUAGGAC [Omei inspired 8],217 nM
